# Test results taken from patent publication US20210277150A1.
# How the values were obtained:
# [1] = biological target: FcgammaRIIB (CD32b) (human) (UniProt P31994); assay: SPR equilibrium fit; reference WT IgG1
# [2] = biological target: FcgammaRIIIA (CD16a), F allotype (human) (UniProt P08637); assay: SPR equilibrium fit; reference WT IgG1
# FcgammaRIIIA (CD16a), F allotype (human), sequence (P08637 17-208 limits assumed): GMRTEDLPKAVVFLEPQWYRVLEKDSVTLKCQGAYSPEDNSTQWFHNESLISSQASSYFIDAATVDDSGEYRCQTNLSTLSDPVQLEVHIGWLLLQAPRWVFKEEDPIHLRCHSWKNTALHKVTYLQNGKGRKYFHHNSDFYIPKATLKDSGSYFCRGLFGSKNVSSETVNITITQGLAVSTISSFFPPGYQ
# FcgammaRIIB (CD32b) (human), sequence (P31994 43-217 limits assumed): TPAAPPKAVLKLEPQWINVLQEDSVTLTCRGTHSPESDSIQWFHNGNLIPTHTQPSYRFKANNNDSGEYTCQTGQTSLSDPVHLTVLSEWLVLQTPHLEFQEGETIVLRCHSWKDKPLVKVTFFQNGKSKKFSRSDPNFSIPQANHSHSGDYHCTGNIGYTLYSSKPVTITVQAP
Substance,Ratio WT/Variant of kD [1],Ratio WT/Variant of kD [2]
Control 1 (K409D_K392D/D399K_D356K) (antibody),1.68,1.28
Control 2 (T366S_L368A_Y407V/T366W) (antibody),1.13,1.1
